Test results reported in patent US12545899B2, “Luciferase enzymes for use with thermostable luciferins in bioluminescent assays” (Promega Corporation, priority 2018, dated 2026).
Positions count from the first letter of the chain named. In names and notes the source's numbering stands.

B1: MK0157: SEQ ID NO: 122; H244W+S193A+N228D+L305F+S306P+I109V+C38R+F55I+Y108F+A316W+Y339M+T342S+V348I+T284A+T289S+K353R+D435G+L437R (protein)
chain: MADKNILYGPEPFYPLEDGTAGEQMFDALSRYAAIPGRIALTNAHTKENVLYEEILKLSCRLAESFKKYGLKQNDTIAVCSENSLQFFLPVIASLYLGIIVAPVNDKFVERELIHSLGIVKPRIVFCSKNTFQKVLNVKSKLKSIETIIILDLNEDLGGYQCLNNFISQNSDSNLDVKKFKPYSFNRDDQVAAIMFSSGTTGLPKGVMLTHKNIVARFSIAKDPTFGDAINPTSAILTVIPFHWGFGMMTTLGYFTRGFRVVLMHTFEEKLFLQSLQDYKVESALLVPTLMAFLAKSALVEKYDFPHLKEIATGGWPLSKEIGEMVKKRFKLNFVRQGMGLSETTSAILITPRGDAKPGSTGKIVPLHAVKVVDPTTGKILGPNEPGELYFKGPMIMKGYYNNEEATKAIIDNDGWLRSGDIAYYDNDGHFYIVGRLKSLIKYKGYQVAPAEIEGILLQHPYIVDAGVTGIPDEAAGELPAAGVVVQTGKYLNEQIVQDYVASQVSTAKWLRGGVKFLDEIPKGSTGKIDRKVLRQMLEKHTNGHHHHHHHH
B2: MK0158: SEQ ID NO: 123; H244W+S193A+N228D+L305F+S306P+I109V+C38R+F55I+Y108F+A316W+Y339M+T342S+V348I+C257R+T284A+S313T+K353R+D435G (protein)
chain: B1 chain with A284T, T289S, R353K, L437R, W510R

Columns and labels:
Assay type in all cases: biochemical
[1] = Luminescence at 1 mM D/L-luciferin (Table 11); conditions: 1 mM substrate, 1 mM ATP
Excerpt: (§1) Tables 10 and 11 include representative results of kinetic analysis of the thermostable variants with D/L luciferin, CS0333, and CS0280. […] MK0135 and MK0137 have amino acid substitutions that improve thermostability relative to MK0133 and MK0134, respectively, while retaining activity on the luciferin analogs CS0333 and CS0280.

[2] = Luminescence at 1 mM CS0333 (Table 11); conditions: 1 mM substrate, 1 mM ATP
Excerpt: as §1

[3] = Luminescence at 1 mM CS0280 (Table 11); conditions: 1 mM substrate, 1 mM ATP
Excerpt: as §1

[4] = Kinetic analysis of thermostable variants with D/L-luciferin (Tables 13, 14); conditions: 2 mM ATP
Excerpt: (§2) Tables 13 and 14 include representative results of kinetic analysis of the thermostable variants with D/L luciferin, CS0333, and CS0280. The panel of enzyme variants highlight amino acid substitutions that further improve upon MK0137 in maximum luminescence (Vmax) or Km in different buffers with the different substrates tested (D/L-luciferin, CS0333, and CS0280). In particular, enzyme variants MK0151 and MK153 show improvements relative to MK0137 across multiple buffers with multiple substrates.

[5] = Kinetic analysis of thermostable variants with CS0333 (Tables 13, 14); conditions: 2 mM ATP
Excerpt: as §2

[6] = Kinetic analysis of thermostable variants with CS0280 (Tables 13, 14); conditions: 2 mM ATP
Excerpt: as §2

Molecule	Vmax (RLU) D/L-luciferin BrightGlo Buffer [1]	Vmax (RLU) D/L-luciferin Detection Reagent Buffer [1]	Vmax (RLU) CS0333 BrightGlo Buffer [2]	Vmax (RLU) CS0333 Detection Reagent Buffer [2]	Vmax (RLU) CS0280 BrightGlo Buffer [3]	Vmax (RLU) CS0280 Detection Reagent Buffer [3]	Km ([4]; BrightGlo Buffer) [µM]	Vmax (RLU) ([4]; BrightGlo Buffer)	Km ([4]; Detection Reagent Buffer) [µM]	Vmax (RLU) ([4]; Detection Reagent Buffer)	Km ([5]; BrightGlo Buffer) [µM]	Vmax (RLU) ([5]; BrightGlo Buffer)	Km ([5]; Detection Reagent Buffer) [µM]	Vmax (RLU) ([5]; Detection Reagent Buffer)	Km ([6]; BrightGlo Buffer) [µM]	Vmax (RLU) ([6]; BrightGlo Buffer)	Km ([6]; Detection Reagent Buffer) [µM]	Vmax (RLU) ([6]; Detection Reagent Buffer)
B1	573,187 RLU	75,012 RLU	4,827,260 RLU	3,810,820 RLU	3,598,730 RLU	159,336 RLU	0.1	590,903 RLU	0.27	32,485 RLU	4.51	2,835,770 RLU	18.7	515,775 RLU	4.49	951,258 RLU	631	87,011 RLU
B2	3,261,120 RLU	1,086,510 RLU	4,043,790 RLU	1,508,370 RLU	1,523,240 RLU	41,712 RLU	0.109	2,509,334 RLU	0.451	365,701 RLU	14.6	1,546,728 RLU	20.8	524,381 RLU	2.94	426,927 RLU	568	39,068 RLU
